# Reference: article PMC9352680, “A comprehensive thermodynamic model for RNA binding by the Saccharomyces cerevisiae Pumilio protein PUF4”
# T1: PUF4 RNA-binding domain (Saccharomyces cerevisiae, UniProt P25339 537-888)
# T1 sequence: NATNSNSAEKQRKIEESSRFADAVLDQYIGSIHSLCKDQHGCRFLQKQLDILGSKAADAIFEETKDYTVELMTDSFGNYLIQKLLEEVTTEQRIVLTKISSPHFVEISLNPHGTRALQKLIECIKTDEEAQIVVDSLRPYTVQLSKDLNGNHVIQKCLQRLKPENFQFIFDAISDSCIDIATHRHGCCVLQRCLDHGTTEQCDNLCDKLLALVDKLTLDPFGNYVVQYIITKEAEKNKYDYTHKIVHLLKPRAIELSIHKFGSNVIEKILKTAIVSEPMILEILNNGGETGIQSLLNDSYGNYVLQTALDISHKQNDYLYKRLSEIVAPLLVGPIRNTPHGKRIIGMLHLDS
# Biological target: T1, PUF4 RNA-binding domain
# Assay: Mg; RNA-MaP; 20 mM Na-HEPES pH 7.4, 30 mM KOAc, 0.75 mM MgCl2, 0.1% Tween-20, 5% glycerol, 0.1 mg/mL BSA, 2 mM DTT; 25 C; 0.0125-409.6 nM protein
# Settings: tags: N-His6-TEV cleaved; C-SNAP kept, Cy3B-labelled; label: tethered on chip by stalled RNA polymerase
row,Binder,Kd
1,Ic_S2_P4E.1_K4.1_C4.1_H4.1_A4.1_[T5A]_[A6T]_F4.1_[T8C]_[A9T]_T4.1 (ssRNA) RNA: UUUGAUUAAUAUGAUAUCGUUCUUUCUUGUAAUUCUUUCUUUCUCGAUAUCAUAUUAAUCUUU,48 nM
2,Ic_S2_P4E.1_K4.1_C4.1_H4.1_A4.1_[T5A]_[A6T]_F4.1_[T8A]_[A9T]_T4.1 (ssRNA) RNA: UUUGAUUAAUAUGAUAUCGUUCUUUCUUGUAAUUAUUUCUUUCUCGAUAUCAUAUUAAUCUUU,36.2 nM
3,Ic_S2_P4E.1_K4.1_C4.1_H4.1_A4.1_[T5A]_[A6T]_F4.1_[A9C]_T4.1 (ssRNA) RNA: UUUGAUUAAUAUGAUAUCGUUCUUUCUUGUAAUUUCUUCUUUCUCGAUAUCAUAUUAAUCUUU,44.7 nM
4,UCUCUUCGUAUAUUAUCUCUU (ssRNA) [Ia_S1_P4E.1_K4.1_C4.1_H4.1_[T1C]_A4.1_F4.1_T4.1],20.9 nM
5,UCUCUUUGUAAUUAUCUCUU (ssRNA) [Ib_S1_P3E.1_K3.1_C3.1_H3.1_A3.1_[T5A]_[A6T]_F3.1_T3.1],155 nM
6,Ic_S2_P4E.1_K4.1_C4.1_H4.1_A4.1_[T5A]_[A6T]_F4.1_[A9T]_T4.1 (ssRNA) RNA: UUUGAUUAAUAUGAUAUCGUUCUUUCUUGUAAUUUUUUCUUUCUCGAUAUCAUAUUAAUCUUU,22.4 nM
7,Ic_S2_P4E.1_K4.1_C4.1_H4.1_A4.1_[T5A]_[T7C]_F4.1_[T8C]_[A9T]_T4.1 (ssRNA) RNA: UUUGAUUAAUAUGAUAUCGUUCUUUCUUGUAAACCUUUCUUUCUCGAUAUCAUAUUAAUCUUU,242 nM
8,Ic_S2_P4E.1_K4.1_C4.1_H4.1_A4.1_[T5A]_[T7C]_F4.1_[T8A]_[A9G]_T4.1 (ssRNA) RNA: UUUGAUUAAUAUGAUAUCGUUCUUUCUUGUAAACAGUUCUUUCUCGAUAUCAUAUUAAUCUUU,1140 nM
9,Ic_S2_P4E.1_K4.1_C4.1_H4.1_A4.1_[T5A]_[T7C]_F4.1_[T8A]_[A9C]_T4.1 (ssRNA) RNA: UUUGAUUAAUAUGAUAUCGUUCUUUCUUGUAAACACUUCUUUCUCGAUAUCAUAUUAAUCUUU,528 nM
10,Ic_S2_P4E.1_K4.1_C4.1_H4.1_A4.1_[T5A]_[T7C]_F4.1_[T8A]_T4.1 (ssRNA) RNA: UUUGAUUAAUAUGAUAUCGUUCUUUCUUGUAAACAAUUCUUUCUCGAUAUCAUAUUAAUCUUU,57.8 nM
11,Ic_S2_P4E.1_K4.1_C4.1_H4.1_A4.1_[T5A]_[T7C]_F4.1_[A9G]_T4.1 (ssRNA) RNA: UUUGAUUAAUAUGAUAUCGUUCUUUCUUGUAAACUGUUCUUUCUCGAUAUCAUAUUAAUCUUU,18.3 nM
12,Ic_S2_P4E.1_K4.1_C4.1_H4.1_A4.1_[T5A]_[T7C]_F4.1_[A9C]_T4.1 (ssRNA) RNA: UUUGAUUAAUAUGAUAUCGUUCUUUCUUGUAAACUCUUCUUUCUCGAUAUCAUAUUAAUCUUU,26.1 nM
13,Ic_S2_P4E.1_K4.1_C4.1_H4.1_A4.1_[T5A]_[T7C]_F4.1_[A9T]_T4.1 (ssRNA) RNA: UUUGAUUAAUAUGAUAUCGUUCUUUCUUGUAAACUUUUCUUUCUCGAUAUCAUAUUAAUCUUU,14.6 nM
14,Ic_S2_P4E.1_K4.1_C4.1_H4.1_A4.1_[T5A]_[T7A]_F4.1_[T8C]_[A9C]_T4.1 (ssRNA) RNA: UUUGAUUAAUAUGAUAUCGUUCUUUCUUGUAAAACCUUCUUUCUCGAUAUCAUAUUAAUCUUU,385 nM
15,Ic_S2_P4E.1_K4.1_C4.1_H4.1_A4.1_[T5A]_[T7A]_F4.1_[A9G]_T4.1 (ssRNA) RNA: UUUGAUUAAUAUGAUAUCGUUCUUUCUUGUAAAAUGUUCUUUCUCGAUAUCAUAUUAAUCUUU,21 nM
16,UCUCUUUGUAUAUGGUCUCUU (ssRNA) [Ib_S1_P4E.1_K4.1_C4.1_H4.1_A4.1_F4.1_[T8G]_[A9G]_T4.1],47.2 nM
17,Ic_S2_P4E.1_K4.1_C4.1_H4.1_A4.1_[T5A]_[T7A]_F4.1_[A9C]_T4.1 (ssRNA) RNA: UUUGAUUAAUAUGAUAUCGUUCUUUCUUGUAAAAUCUUCUUUCUCGAUAUCAUAUUAAUCUUU,65.2 nM
18,Ic_S2_P4E.1_K4.1_C4.1_H4.1_A4.1_[T5A]_F4.1_[T8G]_[A9T]_T4.1 (ssRNA) RNA: UUUGAUUAAUAUGAUAUCGUUCUUUCUUGUAAAUGUUUCUUUCUCGAUAUCAUAUUAAUCUUU,164 nM
19,Ic_S2_P4E.1_K4.1_C4.1_H4.1_A4.1_[T5A]_F4.1_[T8A]_[A9G]_T4.1 (ssRNA) RNA: UUUGAUUAAUAUGAUAUCGUUCUUUCUUGUAAAUAGUUCUUUCUCGAUAUCAUAUUAAUCUUU,67.7 nM
20,Ic_S2_P4E.1_K4.1_C4.1_H4.1_A4.1_[T5A]_F4.1_[T8A]_[A9C]_T4.1 (ssRNA) RNA: UUUGAUUAAUAUGAUAUCGUUCUUUCUUGUAAAUACUUCUUUCUCGAUAUCAUAUUAAUCUUU,23.4 nM
21,Ic_S2_P4E.1_K4.1_C4.1_H4.1_A4.1_[A6G]_[T7G]_F4.1_[T8C]_[A9G]_T4.1 (ssRNA) RNA: UUUGAUUAAUAUGAUAUCGUUCUUUCUUGUAUGGCGUUCUUUCUCGAUAUCAUAUUAAUCUUU,1670 nM
22,Ic_S2_P4E.1_K4.1_C4.1_H4.1_A4.1_[A6G]_[T7G]_F4.1_[T8C]_[A9T]_T4.1 (ssRNA) RNA: UUUGAUUAAUAUGAUAUCGUUCUUUCUUGUAUGGCUUUCUUUCUCGAUAUCAUAUUAAUCUUU,619 nM
23,Ic_S2_P4E.1_K4.1_C4.1_H4.1_A4.1_[A6G]_[T7G]_F4.1_[A9T]_T4.1 (ssRNA) RNA: UUUGAUUAAUAUGAUAUCGUUCUUUCUUGUAUGGUUUUCUUUCUCGAUAUCAUAUUAAUCUUU,224 nM
